Measured values reported in IntAct's records for PubMed 11018022.

B1: Insulin receptor substrate 1 (Rattus norvegicus (Rat)), P35570 (parent)
chain: MASPPDTDGFSDVRKVGYLRKPKSMHKRFFVLRAASEAGGPARLEYYENEKKWRHKSSAPKRSIPLESCFNINKRADSKNKHLVALYTRDEHFAIAADSEAEQDSWYQALLQLHNRAKAHHDGAGGGCGGSCSGSSGVGEAGEDLSYDTGPGPAFKEVWQVILKPKGLGQTKNLIGIYRLCLTSKTISFVKLNSEAAAVVLQLMNIRRCGHSENFFFIEVGRSAVTGPGEFWMQVDDSVVAQNMHETILEAMRAMSDEFRPRTKSQSSSSCSNPISVPLRRHHLNNPPPSQVGLTRRSRTESITATSPASMVGGKPGSFRVRASSDGEGTMSRPASVDGSPVSPSTNRTHAHRHRGSSRLHPPLNHSRSIPMPSSRCSPSATSPVSLSSSSTSGHGSTSDCLFPRRSSASVSGSPSDGGFISSDEYGSSPCDFRSSFRSVTPDSLGHTPPARGEEELSNYICMGGKGASTLTAPNGHYILSRGGNGHRYIPGATMGTSPALTGDEAAGAADLDNRFRKRTHSAGTSPTISHQKTPSQSSVVSIEEYTEMMPAAYPPGGGSGGRLPGYRHSAFVPTHSYPEEGLEMHHLERRGGHHRPDSSNLHTDDGYMPMSPGVAPVPSNRKGNGDYMPMSPKSVSAPQQIINPIRRHPQRVDPNGYMMMSPSGSCSPDIGGGSCSSSSISAAPSGSSYGKPWTNGVGGHHTHALPHAKPPVESGGGKLLPCTGDYMNMSPVGDSNTSSPSECYYGPEDPQHKPVLSYYSLPRSFKHTQRPGEPEEGARHQHLRLSSSSGRLRYTATAEDSSSSTSSDSLGGGYCGARPESSVTHPHHHALQPHLPRKVDTAAQTNSRLARPTRLSLGDPKASTLPRVREQQQQQQQQQQSSLHPPEPKSPGEYVNIEFGSGQPGYLAGPATSRSSPSVRCLPQLHPAPREETGSEEYMNMDLGPGRRATWQESGGVELGRVGPAPPGAASICRPTRSVPNSRGDYMTMQIGCPRQSYVDTSPVAPVSYADMRTGIAAEKVSLPRTTGAAPPPSSTASASASVTPQGAAEQAAHSSLLGGPQGPGGMSAFTRVNLSPNHNQSAKVIRADTQGCRRRHSSETFSAPTRAANTVSFGAGAAGGGSGGGSEDVKRHSSASFENVWLRPGDLGGASKESAPGCGAAGGLEKSLNYIDLDLVKDVKQHPQDCPSQQQSLPPPPPHQPLGSNEGSSPRRSSEDLSTYASINFQKQPEDRQ

Variants of: B1
Details: with phip_mouse Phip
For W106A, the “effect of a mutation on the interaction” value was “disrupting interaction”.
